The record followed here is the supplement of paper PMC10567573.

The labels stand for the following.
B1: GAGE1 (parent)
chain: QPPEMIGPMRPEQFSDEVEPATPE
B2: SPRY1 (parent)
chain: WIHRPGCRCKNSNTVYCKLESCPS
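Further: lentivirally expressed fusions sorted by FACS into six bins by GFP to DsRed ratio, PSI derived from sequencing read proportions per bin multiplied by bin number.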

Variants of B1 are the subject of one data set. The data set is described as follows: protein stability index of a GFP-peptide fusion (GPS, HEK-293T) (PSI 1-6); higher = more stable. The following applies: c terminus: a fixed tail appended.
QPWEMIGPMRPEQFSDEVEPATPE [P3W]: the protein stability index came to 5.23.
Regarding QPEEMIGPMRPEQFSDEVEPATPE [P3E], the protein stability index is 5.63.
As to QPFEMIGPMRPEQFSDEVEPATPE [P3F], the protein stability index amounted to 5.22.
For the variant QPHEMIGPMRPEQFSDEVEPATPE [P3H], the protein stability index is 5.52.
In the case of QPTEMIGPMRPEQFSDEVEPATPE [P3T], the protein stability index amounted to 5.57.
Take QPYEMIGPMRPEQFSDEVEPATPE [P3Y]: the protein stability index is 5.32.
In the case of QPMEMIGPMRPEQFSDEVEPATPE [P3M], the protein stability index was 5.76.
Consider QPGEMIGPMRPEQFSDEVEPATPE [P3G], for which the protein stability index stood at 5.17.
Still for that read-out and setting: the value for QPIEMIGPMRPEQFSDEVEPATPE [P3I] was 4.9; that for QPCEMIGPMRPEQFSDEVEPATPE [P3C] was 5.44.
As to QPREMIGPMRPEQFSDEVEPATPE [P3R], the protein stability index is 5.71.
With QPQEMIGPMRPEQFSDEVEPATPE [P3Q], the protein stability index stood at 5.51.
The same measure, in the same setting: the value for QPSEMIGPMRPEQFSDEVEPATPE [P3S] was 5.26.
With QPLEMIGPMRPEQFSDEVEPATPE [P3L], the protein stability index amounted to 4.76.
Regarding QPAEMIGPMRPEQFSDEVEPATPE [P3A], the protein stability index is 5.73.

The variants in a further data set derive from B2. Described as above. Conditions: c terminus: a fixed tail appended.
As for WIHRPGCRCHNSNTVYCKLESCPS [K10H], the protein stability index is 2.77.
As to WIHRPGCRCGNSNTVYCKLESCPS [K10G], the protein stability index was 2.75.
Same read-out and setting: the figure for WIHRPGCRCDNSNTVYCKLESCPS [K10D] is 3.1; for WIHRHGCRCKNSNTVYCKLESCPS [P5H] it is 1.91.
With WIHRQGCRCKNSNTVYCKLESCPS [P5Q], the protein stability index is 2.38.
Regarding WIHRPGCRCKDSNTVYCKLESCPS [N11D], the protein stability index was determined as 2.88.
Still for that read-out and setting: the value for WIHRPGCRCKMSNTVYCKLESCPS [N11M] was 2.66.
Regarding WIHRPGCRCKVSNTVYCKLESCPS [N11V], the protein stability index worked out at 3.49.
Consider WIHRPGCRCKESNTVYCKLESCPS [N11E], for which the protein stability index was 2.62.
The same measure, in the same setting: the figure for WIHRPGCRCKWSNTVYCKLESCPS [N11W] is 2.6; for WIHRPGCRCKNSNTVYCKGESCPS [L19G] it is 2.68; for WIHRPGCRCKNSNTVYCKRESCPS [L19R] it is 2.73.
Regarding WIHRPGCRCKNSNTVYCKHESCPS [L19H], the protein stability index amounted to 1.89.
On the same count and under the same terms, the figure for WIHRPGCRCKNSNTVYCKDESCPS [L19D] is 3.51.
On the same count and under the same terms, the figure for WIHRPGCRCKNSNTVYCSLESCPS [K18S] is 2.28.
WIHRPGCRCKNSNTVYCGLESCPS [K18G]: the protein stability index is 2.58.
On to WIHRPGCRCKNSNTVYCKLNSCPS [E20N], for which the protein stability index came to 2.13.
In the case of WIHRPGCRCKNSNTVYCKLVSCPS [E20V], the protein stability index was 1.77.
In the case of WIHRPGCRCKNSNTVYCKLPSCPS [E20P], the protein stability index amounted to 1.92.
As for WIHRPGCRCKNSWTVYCKLESCPS [N13W], the protein stability index was 2.81.
On to WIHRPGCRCKNSDTVYCKLESCPS [N13D], for which the protein stability index was determined as 3.17.
Same read-out and setting: the figure for WIHVPGCRCKNSNTVYCKLESCPS [R4V] is 3.11; for WIHWPGCRCKNSNTVYCKLESCPS [R4W] it is 1.97.
Consider WIHMPGCRCKNSNTVYCKLESCPS [R4M], for which the protein stability index amounted to 2.85.
With WIHLPGCRCKNSNTVYCKLESCPS [R4L], the protein stability index is 3.06.
The same measure, in the same setting: the value for WIHQPGCRCKNSNTVYCKLESCPS [R4Q] was 4.23.
For the variant WIHRPGCRCKNSNTVYCKLEICPS [S21I], the protein stability index came to 2.67.
Consider WIHRPGCRCKNSNTVYCKLEECPS [S21E], for which the protein stability index is 2.4.
In the case of WIHRPGCRCKNSNTVYCKLEGCPS [S21G], the protein stability index was determined as 2.22.
On to WIHRPGCRCKNSNTVYCKLEDCPS [S21D], for which the protein stability index turned out to be 2.13.
With WIHRPGCRCKNWNTVYCKLESCPS [S12W], the protein stability index is 1.73.
Regarding WIHRPGCRCKNKNTVYCKLESCPS [S12K], the protein stability index worked out at 2.32.
As for WIHRPGCRCKNPNTVYCKLESCPS [S12P], the protein stability index stood at 1.65.
Regarding WIHRPGCRCKNNNTVYCKLESCPS [S12N], the protein stability index was found to be 2.12.
Still for that read-out and setting: the value for WIHRPGCRCKNLNTVYCKLESCPS [S12L] was 3.01; that for WIHRPGCRCKNSNTVYCKLESCHS [P23H] was 2.23; that for WIHRPGCRCKNSNTVYCKLESCFS [P23F] was 3.63.
Same read-out and setting: the value for WIHRPGDRCKNSNTVYCKLESCPS [C7D] was 2.28; that for WIHRPGERCKNSNTVYCKLESCPS [C7E] was 1.85.
As for WIHRPGIRCKNSNTVYCKLESCPS [C7I], the protein stability index stood at 1.52.
Still for that read-out and setting: the value for WIHRPGLRCKNSNTVYCKLESCPS [C7L] was 1.72; that for WIHRPGNRCKNSNTVYCKLESCPS [C7N] was 2.37.
The same measure, in the same setting: the figure for WIHRPGWRCKNSNTVYCKLESCPS [C7W] is 3; for WIHRPGCSCKNSNTVYCKLESCPS [R8S] it is 2.24; for WIHRPGCRCKNSNTVYCKLESMPS [C22M] it is 1.53.
For the variant WIHRPGCRCKNSNTVYCKLESAPS [C22A], the protein stability index amounted to 3.24.
Regarding WIHRPGCRCKNSNTVYCKLESFPS [C22F], the protein stability index was 1.8.
As to WIHRPGCRCKNSNTHYCKLESCPS [V15H], the protein stability index amounted to 2.06.
Turning to WIHRPGCRCKNSNTCYCKLESCPS [V15C], the protein stability index stood at 2.42.
For the variant WIHRPGCRCKNSNTIYCKLESCPS [V15I], the protein stability index is 2.14.
For the variant WIHRPGCRCKNSNTKYCKLESCPS [V15K], the protein stability index was 2.18.
As to WIHRPGCRCKNSNTTYCKLESCPS [V15T], the protein stability index amounted to 3.03.
Take WIHRPDCRCKNSNTVYCKLESCPS [G6D]: the protein stability index stood at 2.62.
Consider WIHRPPCRCKNSNTVYCKLESCPS [G6P], for which the protein stability index was 2.61.
As to WIHRPVCRCKNSNTVYCKLESCPS [G6V], the protein stability index came to 1.93.
Regarding WIHRPFCRCKNSNTVYCKLESCPS [G6F], the protein stability index was found to be 1.7.
Still for that read-out and setting: the figure for WIHRPHCRCKNSNTVYCKLESCPS [G6H] is 2.06; for WIWRPGCRCKNSNTVYCKLESCPS [H3W] it is 1.73.
The same measure, in the same setting: the figure for WINRPGCRCKNSNTVYCKLESCPS [H3N] is 2.4; for WIERPGCRCKNSNTVYCKLESCPS [H3E] it is 3.78; for SIHRPGCRCKNSNTVYCKLESCPS [W1S] it is 4.09.
On to KIHRPGCRCKNSNTVYCKLESCPS [W1K], for which the protein stability index worked out at 3.97.
As to CIHRPGCRCKNSNTVYCKLESCPS [W1C], the protein stability index stood at 3.78.
Consider WNHRPGCRCKNSNTVYCKLESCPS [I2N], for which the protein stability index is 3.22.
On to WPHRPGCRCKNSNTVYCKLESCPS [I2P], for which the protein stability index amounted to 3.62.
Same read-out and setting: the figure for WIHRPGCRCKNSNTVYYKLESCPS [C17Y] is 1.65; for WIHRPGCRCKNSNTVYEKLESCPS [C17E] it is 2.39; for WIHRPGCRCKNSNTVYHKLESCPS [C17H] it is 2.3.
In the case of WIHRPGCRCKNSNTVYGKLESCPS [C17G], the protein stability index was determined as 2.81.
Consider WIHRPGCRCKNSNRVYCKLESCPS [T14R], for which the protein stability index was determined as 1.54.
Take WIHRPGCRCKNSNEVYCKLESCPS [T14E]: the protein stability index came to 2.84.
Take WIHRPGCRCKNSNSVYCKLESCPS [T14S]: the protein stability index is 2.59.
Still for that read-out and setting: the value for WIHRPGCRAKNSNTVYCKLESCPS [C9A] was 2.19; that for WIHRPGCRWKNSNTVYCKLESCPS [C9W] was 2.04; that for WIHRPGCRLKNSNTVYCKLESCPS [C9L] was 2.69.
As to WIHRPGCRCKNSNTVYCKLESCPQ [S24Q], the protein stability index was determined as 2.13.
On the same count and under the same terms, the figure for WIHRPGCRCKNSNTVYCKLESCPF [S24F] is 2.09.
As for WIHRPGCRCKNSNTVYCKLESCPC [S24C], the protein stability index stood at 2.5.
WIHRPGCRCKNSNTVYCKLESCPE [S24E]: the protein stability index worked out at 2.52.
